The results in this text go back to PMC11967829, “Nudix Hydrolase 13 Impairs the Initiation of Colorectal Cancer by Inhibiting PKM1 ADP‐Ribosylation” (Advanced Science, 2025).

B1: purified recombinant PKM1 (natural protein)
chain: not shown
notes: PKM1, the M1 splice isoform of pyruvate kinase M (PKM); also called purified PKM1; source: purified recombinant
B2: N13 peptide (mimic peptide of NUDT13 230–252 AA) (peptide, UniProt Q86X67 230-252, looked up)
peptide: GFCDIGESVEETIRREVAEEVGL
notes: The peptide was synthesized conjugated with the membrane-penetrating peptide iRGD (N13-iRGD); also called N13-iRGD; source: synthetic peptide

For one assay, the target named is T1, recombinant human PARP1 (human, UniProt P09874 1-1014).
T1 construct: PARP1 (poly ADP-ribose polymerase 1), human, recombinant; The source is named for the in vitro PARylation assay; source: bought: Sino Biological
T1 sequence (P09874 whole entry): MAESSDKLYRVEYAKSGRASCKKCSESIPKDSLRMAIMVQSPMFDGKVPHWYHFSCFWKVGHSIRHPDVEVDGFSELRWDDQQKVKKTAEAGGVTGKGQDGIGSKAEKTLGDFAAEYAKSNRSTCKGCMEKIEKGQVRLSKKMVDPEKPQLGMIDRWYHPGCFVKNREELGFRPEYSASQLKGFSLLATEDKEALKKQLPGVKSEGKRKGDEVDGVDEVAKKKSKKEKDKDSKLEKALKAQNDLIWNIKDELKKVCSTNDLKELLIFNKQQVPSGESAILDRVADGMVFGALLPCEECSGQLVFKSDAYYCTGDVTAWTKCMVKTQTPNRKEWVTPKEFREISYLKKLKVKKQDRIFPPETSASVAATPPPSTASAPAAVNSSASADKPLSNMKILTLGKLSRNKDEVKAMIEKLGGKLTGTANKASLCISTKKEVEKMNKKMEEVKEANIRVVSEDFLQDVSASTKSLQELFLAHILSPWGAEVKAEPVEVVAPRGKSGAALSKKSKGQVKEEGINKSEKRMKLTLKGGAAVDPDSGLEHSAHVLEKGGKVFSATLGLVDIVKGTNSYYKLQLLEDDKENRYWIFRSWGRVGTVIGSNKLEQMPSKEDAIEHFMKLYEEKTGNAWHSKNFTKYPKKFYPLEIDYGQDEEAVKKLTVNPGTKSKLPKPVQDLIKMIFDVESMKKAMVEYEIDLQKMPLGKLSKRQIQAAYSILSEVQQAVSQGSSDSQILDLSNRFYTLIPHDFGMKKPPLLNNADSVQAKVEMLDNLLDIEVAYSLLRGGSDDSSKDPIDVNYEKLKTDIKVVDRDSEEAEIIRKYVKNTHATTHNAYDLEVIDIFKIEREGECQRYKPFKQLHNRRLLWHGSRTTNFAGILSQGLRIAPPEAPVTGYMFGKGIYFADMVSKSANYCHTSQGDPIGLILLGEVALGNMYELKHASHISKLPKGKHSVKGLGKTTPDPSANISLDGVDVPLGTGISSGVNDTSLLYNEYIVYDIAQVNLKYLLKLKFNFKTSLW
In words: pull-down; in vitro pull-down of PKM1 and PARP1 (Figure 5E). The settings on record: both partners purified.

The target in assay [1] is B1. Description: pull-down; in vitro pull-down of N13 peptide with purified PKM1 or PKM2, Coomassie blue staining (Figure 7D). The settings on record: both partners purified.

On to B1, for which the binding result in the assay with recombinant human PARP1 is listed as “binds”. In the case of B2, the binding result in assay [1] was “binds”.
